US20260098075A1

Biological target: human ROR1 (tyrosine-protein kinase transmembrane receptor ROR1) (human), Q01973
Test: cell-based or functional assay

Chain of human ROR1 (tyrosine-protein kinase transmembrane receptor ROR1) (human), Q01973 (Q01973 30-937): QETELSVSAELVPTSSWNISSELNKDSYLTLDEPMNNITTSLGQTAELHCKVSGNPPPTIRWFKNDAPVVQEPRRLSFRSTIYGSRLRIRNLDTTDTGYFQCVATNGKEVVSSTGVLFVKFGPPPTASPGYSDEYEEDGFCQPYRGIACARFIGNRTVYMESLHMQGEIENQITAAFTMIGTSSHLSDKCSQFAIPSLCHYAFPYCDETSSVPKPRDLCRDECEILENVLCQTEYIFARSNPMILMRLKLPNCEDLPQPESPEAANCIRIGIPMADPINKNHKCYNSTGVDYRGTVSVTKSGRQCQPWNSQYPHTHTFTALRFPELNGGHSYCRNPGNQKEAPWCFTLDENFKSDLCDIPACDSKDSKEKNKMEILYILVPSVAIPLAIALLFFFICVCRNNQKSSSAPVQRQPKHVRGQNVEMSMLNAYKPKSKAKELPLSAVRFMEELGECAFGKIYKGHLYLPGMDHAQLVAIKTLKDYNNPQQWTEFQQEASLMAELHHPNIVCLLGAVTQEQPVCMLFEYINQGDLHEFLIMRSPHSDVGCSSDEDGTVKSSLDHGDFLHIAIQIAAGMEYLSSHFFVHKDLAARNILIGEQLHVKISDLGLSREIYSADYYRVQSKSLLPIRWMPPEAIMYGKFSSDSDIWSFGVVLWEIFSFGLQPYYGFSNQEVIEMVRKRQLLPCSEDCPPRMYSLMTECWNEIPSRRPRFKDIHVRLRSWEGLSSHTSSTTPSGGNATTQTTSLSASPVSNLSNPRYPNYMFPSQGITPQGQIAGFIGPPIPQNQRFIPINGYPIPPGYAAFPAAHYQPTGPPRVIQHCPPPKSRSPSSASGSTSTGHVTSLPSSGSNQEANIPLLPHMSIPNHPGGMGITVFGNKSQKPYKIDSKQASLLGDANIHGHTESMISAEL

B1: R12 CAR with Spacer 21 (protein)
chain: QEQLVESGGRLVTPGGSLTLSCKASGFDFSAYYMSWVRQAPGKGLEWIATIYPSSGKTYYATWVNGRFTISSDNAQNTVDLQMNSLTAADRATYFCARDSYADDGALFNIWGPGTLVTISSGGGGSGGGGSGGGGSELVLTQSPSVSAALGSPAKITCTLSSAHKTDTIDWYQQLQGEAPRYLMQVQSDGSYTKRPGVPDRFSGSSSGADRYLIIPSVQADDEADYYCGADYIGGYVFGGGTQLTVTGGGGSGVPCPVPPMFWVLVVVGGVLACYSLLVTVAFIIFWVKRGRKKLLYIFKQPFMRPVQTTQEEDGCSCRFPEEEEGGCELRVKFSRSADAPAYQQGQNQLYNELNLGRREEYDVLDKRRGRDPEMGGKPRRKNPQEGLYNELQKDKMAEAYSEIGMKGERRRGKGHDGLYQGLSTATKDTYDALHMQALPPR
Question: Which A549 IFNg, donor 2735 does the source give for B1 here?
Answer: 14100

Question: What about the A549 IFNg, donor 5018 of the same binder?
Answer: 5000

Question: What about the A549 IL-2, donor 2735 of the same binder?
Answer: 7

Question: And the A549 IL-2, donor 5018?
Answer: 8

Question: What about the A549 normalized AUC, donor 2735 of the same binder?
Answer: 66.3

Question: What about the A549 normalized AUC, donor 5018 of the same binder?
Answer: 85

Question: What about the H1975 IFNg, donor 2735 of the same binder?
Answer: 23200

Question: What about the H1975 IFNg, donor 5018 of the same binder?
Answer: 2650

Question: What about the H1975 IL-2, donor 2735 of the same binder?
Answer: 26

Question: What about the H1975 IL-2, donor 5018 of the same binder?
Answer: 7

Question: What about the H1975 normalized AUC, donor 2735 of the same binder?
Answer: 61.5

Question: And the H1975 normalized AUC, donor 5018?
Answer: 77.4
